Source: patent US20170355766A1 (Xencor, published 2017)

T1: FcγRIIaR (human, UniProt P12318)
T1 construct: recombinant receptor protein with 6xHis and GST tags; also called R131 FcγRIIa
T1 sequence (receptor, looked up): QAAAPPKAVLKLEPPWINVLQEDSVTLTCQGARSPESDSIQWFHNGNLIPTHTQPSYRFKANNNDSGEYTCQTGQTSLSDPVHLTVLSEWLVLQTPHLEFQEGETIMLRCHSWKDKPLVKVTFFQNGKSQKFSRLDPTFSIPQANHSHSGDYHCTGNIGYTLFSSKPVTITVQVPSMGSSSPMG

T2: human FcγRIIb receptor protein (R&D Systems) (human, UniProt P31994 46-217)
T2 construct: Analyte injected over antibodies captured on a protein A/G chip (Biacore); also called CD32b
T2 sequence (looked up): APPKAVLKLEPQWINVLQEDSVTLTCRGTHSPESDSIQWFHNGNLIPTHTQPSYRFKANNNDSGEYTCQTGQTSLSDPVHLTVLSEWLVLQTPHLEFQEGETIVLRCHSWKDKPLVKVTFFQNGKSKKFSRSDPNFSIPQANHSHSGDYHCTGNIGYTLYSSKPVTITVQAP

T3: human H131 FcγRIIa receptor protein (6xHis and GST tags) (human, UniProt P12318 34-217, limits assumed)
T3 construct: also called HIIa
T3 sequence (looked up): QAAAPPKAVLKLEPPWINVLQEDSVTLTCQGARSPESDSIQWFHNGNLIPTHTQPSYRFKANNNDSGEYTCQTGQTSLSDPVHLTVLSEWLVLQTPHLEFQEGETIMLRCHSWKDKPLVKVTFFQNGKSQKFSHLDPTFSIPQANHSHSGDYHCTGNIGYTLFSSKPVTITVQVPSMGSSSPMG


How the values were obtained:
Assay in all cases: SPR (Biacore)
[1] = biological target: T1, FcγRIIaR
[2] = biological target: T2, human FcγRIIb receptor protein (R&D …)
[3] = biological target: T3, human H131 FcγRIIa receptor protein …
[4] = biological target: T4, human V158 FcγRIIIa receptor protein (6xHis and GST tags) (human, UniProt P08637 17-208, limits assumed)
T4 construct: also called VIIIa

[5] = biological target: T5, human FcγRI receptor protein (R&D Systems) (human, UniProt P12314 16-288)
T5 construct: also called CD64
T5 sequence (P12314 16-288 limits assumed): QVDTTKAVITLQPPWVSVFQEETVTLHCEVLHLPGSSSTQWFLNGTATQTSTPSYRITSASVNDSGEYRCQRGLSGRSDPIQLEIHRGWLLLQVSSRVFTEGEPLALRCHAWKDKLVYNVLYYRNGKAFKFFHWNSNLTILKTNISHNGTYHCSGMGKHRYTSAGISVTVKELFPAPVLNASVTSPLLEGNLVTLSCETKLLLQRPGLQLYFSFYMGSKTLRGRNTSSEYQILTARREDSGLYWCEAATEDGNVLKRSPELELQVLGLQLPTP

T4 sequence (P08637 17-208 F176V limits assumed): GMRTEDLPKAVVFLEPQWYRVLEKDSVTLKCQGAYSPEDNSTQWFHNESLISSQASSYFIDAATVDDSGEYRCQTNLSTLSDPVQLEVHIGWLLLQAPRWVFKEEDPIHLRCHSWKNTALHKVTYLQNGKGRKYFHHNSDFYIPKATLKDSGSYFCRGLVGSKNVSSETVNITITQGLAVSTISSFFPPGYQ

Binder	Fold FcγRIIaR [1]	Fold FcγRIIb [2]	Fold FcγRIIaH [3]	Fold FcγRIIIaV [4]	Fold FcγRI [5]	binding result [4]
A327D (antibody, human IgG1, kappa, HuAM4G7 IgG1 Fc variant) heavy: not shown light: DIVMTQSPATLSLSPGERATLSCRSSKSLQNVNGNTYLYWFQQKPGQSPQLLIYRMSNLNSGVPDRFSGSGSGTEFTLTISSLEPEDFAVYYCMQHLEYPITFGAGTKLEIKRTVAAPSVFIFPPSDEQLKSGTASVVCLLNNFYPREAKVQWKVDNALQSGNSQESVTEQDSKDSTYSLSSTLTLSKADYEKHKVYACEVTHQGLSSPVTKSFNRGEC	1.6 fold	1.33 fold	0.733 fold	0.398 fold	2.06 fold	
anti-CD19 antibody HuAM4G7 IgG1 Fc variant S239D/S267E (antibody, Positions are EU numbers, not positions on the UniProt entry; copies: 2 + 2) heavy: not shown light: DIVMTQSPATLSLSPGERATLSCRSSKSLQNVNGNTYLYWFQQKPGQSPQLLIYRMSNLNSGVPDRFSGSGSGTEFTLTISSLEPEDFAVYYCMQHLEYPITFGAGTKLEIKRTVAAPSVFIFPPSDEQLKSGTASVVCLLNNFYPREAKVQWKVDNALQSGNSQESVTEQDSKDSTYSLSSTLTLSKADYEKHKVYACEVTHQGLSSPVTKSFNRGEC	120 fold	111 fold		3.74 fold	23.2 fold	
G237N/S267E (antibody, human IgG1, kappa, HuAM4G7 IgG1 Fc variant) heavy: not shown light: DIVMTQSPATLSLSPGERATLSCRSSKSLQNVNGNTYLYWFQQKPGQSPQLLIYRMSNLNSGVPDRFSGSGSGTEFTLTISSLEPEDFAVYYCMQHLEYPITFGAGTKLEIKRTVAAPSVFIFPPSDEQLKSGTASVVCLLNNFYPREAKVQWKVDNALQSGNSQESVTEQDSKDSTYSLSSTLTLSKADYEKHKVYACEVTHQGLSSPVTKSFNRGEC	61.5 fold	40.5 fold			0.101 fold	no binding
S239D/S267E/L328F (antibody, human IgG1, kappa, HuAM4G7 IgG1 Fc variant) heavy: EVQLVESGGGLVKPGGSLKLSCAASGYTFTSYVMHWVRQAPGKGLEWIGYINPYNDGTKYNEKFQGRVTISSDKSISTAYMELSSLRSEDTAMYYCARGTYYYGTRVFDYWGQGTLVTVSSASTKGPSVFPLAPSSKSTSGGTAALGCLVKDYFPEPVTVSWNSGALTSGVHTFPAVLQSSGLYSLSSVVTVPSSSLGTQTYICNVNHKPSNTKVDKKVEPKSCDKTHTCPPCPAPELLGGPDVFLFPPKPKDTLMISRTPEVTCVVVDVEHEDPEVKFNWYVDGVEVHNAKTKPREEQYNSTYRVVSVLTVLHQDWLNGKEYKCKVSNKAFPAPIEKTISKAKGQPREPQVYTLPPSREEMTKNQVSLTCLVKGFYPSDIAVEWESNGQPENNYKTTPPVLDSDGSFFLYSKLTVDKSRWQQGNVFSCSVMHEALHNHYTQKSLSLSPGK light: DIVMTQSPATLSLSPGERATLSCRSSKSLQNVNGNTYLYWFQQKPGQSPQLLIYRMSNLNSGVPDRFSGSGSGTEFTLTISSLEPEDFAVYYCMQHLEYPITFGAGTKLEIKRTVAAPSVFIFPPSDEQLKSGTASVVCLLNNFYPREAKVQWKVDNALQSGNSQESVTEQDSKDSTYSLSSTLTLSKADYEKHKVYACEVTHQGLSSPVTKSFNRGEC	416 fold	428 fold		0.216 fold	1.45 fold	
V266M (antibody, human IgG1, kappa, HuAM4G7 IgG1 Fc variant) heavy: not shown light: DIVMTQSPATLSLSPGERATLSCRSSKSLQNVNGNTYLYWFQQKPGQSPQLLIYRMSNLNSGVPDRFSGSGSGTEFTLTISSLEPEDFAVYYCMQHLEYPITFGAGTKLEIKRTVAAPSVFIFPPSDEQLKSGTASVVCLLNNFYPREAKVQWKVDNALQSGNSQESVTEQDSKDSTYSLSSTLTLSKADYEKHKVYACEVTHQGLSSPVTKSFNRGEC	3.13 fold	1.91 fold		0.547 fold	1.25 fold	
S267E/L328Y (antibody, human IgG1, kappa, HuAM4G7 IgG1 Fc variant) heavy: not shown light: DIVMTQSPATLSLSPGERATLSCRSSKSLQNVNGNTYLYWFQQKPGQSPQLLIYRMSNLNSGVPDRFSGSGSGTEFTLTISSLEPEDFAVYYCMQHLEYPITFGAGTKLEIKRTVAAPSVFIFPPSDEQLKSGTASVVCLLNNFYPREAKVQWKVDNALQSGNSQESVTEQDSKDSTYSLSSTLTLSKADYEKHKVYACEVTHQGLSSPVTKSFNRGEC	122 fold	43.1 fold			0.224 fold	no binding
S267D (antibody, human IgG1, kappa, HuAM4G7 IgG1 Fc variant) heavy: not shown light: DIVMTQSPATLSLSPGERATLSCRSSKSLQNVNGNTYLYWFQQKPGQSPQLLIYRMSNLNSGVPDRFSGSGSGTEFTLTISSLEPEDFAVYYCMQHLEYPITFGAGTKLEIKRTVAAPSVFIFPPSDEQLKSGTASVVCLLNNFYPREAKVQWKVDNALQSGNSQESVTEQDSKDSTYSLSSTLTLSKADYEKHKVYACEVTHQGLSSPVTKSFNRGEC	8.99 fold	4.45 fold		1.51 fold	2.11 fold	
S267A (antibody, human IgG1, kappa, HuAM4G7 IgG1 Fc variant) heavy: not shown light: DIVMTQSPATLSLSPGERATLSCRSSKSLQNVNGNTYLYWFQQKPGQSPQLLIYRMSNLNSGVPDRFSGSGSGTEFTLTISSLEPEDFAVYYCMQHLEYPITFGAGTKLEIKRTVAAPSVFIFPPSDEQLKSGTASVVCLLNNFYPREAKVQWKVDNALQSGNSQESVTEQDSKDSTYSLSSTLTLSKADYEKHKVYACEVTHQGLSSPVTKSFNRGEC	4.29 fold	3.6 fold		0.952 fold	1.15 fold	
S267E/H268E/L328F (antibody, human IgG1, kappa, HuAM4G7 IgG1 Fc variant) heavy: EVQLVESGGGLVKPGGSLKLSCAASGYTFTSYVMHWVRQAPGKGLEWIGYINPYNDGTKYNEKFQGRVTISSDKSISTAYMELSSLRSEDTAMYYCARGTYYYGTRVFDYWGQGTLVTVSSASTKGPSVFPLAPSSKSTSGGTAALGCLVKDYFPEPVTVSWNSGALTSGVHTFPAVLQSSGLYSLSSVVTVPSSSLGTQTYICNVNHKPSNTKVDKKVEPKSCDKTHTCPPCPAPELLGGPSVFLFPPKPKDTLMISRTPEVTCVVVDVEEEDPEVKFNWYVDGVEVHNAKTKPREEQYNSTYRVVSVLTVLHQDWLNGKEYKCKVSNKAFPAPIEKTISKAKGQPREPQVYTLPPSREEMTKNQVSLTCLVKGFYPSDIAVEWESNGQPENNYKTTPPVLDSDGSFFLYSKLTVDKSRWQQGNVFSCSVMHEALHNHYTQKSLSLSPGK light: DIVMTQSPATLSLSPGERATLSCRSSKSLQNVNGNTYLYWFQQKPGQSPQLLIYRMSNLNSGVPDRFSGSGSGTEFTLTISSLEPEDFAVYYCMQHLEYPITFGAGTKLEIKRTVAAPSVFIFPPSDEQLKSGTASVVCLLNNFYPREAKVQWKVDNALQSGNSQESVTEQDSKDSTYSLSSTLTLSKADYEKHKVYACEVTHQGLSSPVTKSFNRGEC	253 fold	344 fold			0.991 fold	
S239E (antibody, human IgG1, kappa, HuAM4G7 IgG1 Fc variant) heavy: not shown light: DIVMTQSPATLSLSPGERATLSCRSSKSLQNVNGNTYLYWFQQKPGQSPQLLIYRMSNLNSGVPDRFSGSGSGTEFTLTISSLEPEDFAVYYCMQHLEYPITFGAGTKLEIKRTVAAPSVFIFPPSDEQLKSGTASVVCLLNNFYPREAKVQWKVDNALQSGNSQESVTEQDSKDSTYSLSSTLTLSKADYEKHKVYACEVTHQGLSSPVTKSFNRGEC	0.688 fold	0.803 fold		3.49 fold	1.65 fold	
G236T (antibody, human IgG1, kappa, HuAM4G7 IgG1 Fc variant) heavy: not shown light: DIVMTQSPATLSLSPGERATLSCRSSKSLQNVNGNTYLYWFQQKPGQSPQLLIYRMSNLNSGVPDRFSGSGSGTEFTLTISSLEPEDFAVYYCMQHLEYPITFGAGTKLEIKRTVAAPSVFIFPPSDEQLKSGTASVVCLLNNFYPREAKVQWKVDNALQSGNSQESVTEQDSKDSTYSLSSTLTLSKADYEKHKVYACEVTHQGLSSPVTKSFNRGEC	0.35 fold		0.486 fold		0.0157 fold	no binding
G236S (antibody, human IgG1, kappa, HuAM4G7 IgG1 Fc variant) heavy: not shown light: DIVMTQSPATLSLSPGERATLSCRSSKSLQNVNGNTYLYWFQQKPGQSPQLLIYRMSNLNSGVPDRFSGSGSGTEFTLTISSLEPEDFAVYYCMQHLEYPITFGAGTKLEIKRTVAAPSVFIFPPSDEQLKSGTASVVCLLNNFYPREAKVQWKVDNALQSGNSQESVTEQDSKDSTYSLSSTLTLSKADYEKHKVYACEVTHQGLSSPVTKSFNRGEC	2.33 fold	1.02 fold	3.76 fold		0.0268 fold	
L234D/S267E (antibody, human IgG1, kappa, HuAM4G7 IgG1 Fc variant) heavy: not shown light: DIVMTQSPATLSLSPGERATLSCRSSKSLQNVNGNTYLYWFQQKPGQSPQLLIYRMSNLNSGVPDRFSGSGSGTEFTLTISSLEPEDFAVYYCMQHLEYPITFGAGTKLEIKRTVAAPSVFIFPPSDEQLKSGTASVVCLLNNFYPREAKVQWKVDNALQSGNSQESVTEQDSKDSTYSLSSTLTLSKADYEKHKVYACEVTHQGLSSPVTKSFNRGEC	12.7 fold	21.7 fold		0.14 fold	0.0286 fold	
